Experimental findings from patent publication US20250011363A1, “OPTIMIZED SHORTENED PEPTIDE THAT BINDS TO ACETYLCHOLINE RECEPTOR, AND USE THEREOF” (SKINMED CO., LTD., priority 2021, published 2025) are described below.

For test [1], the target named is acetylcholine receptor. The experiment in a line: SPR, peptide at 10 µM on acetylcholine receptor. On the technique in general: In SPR one partner is held on a chip, and binding of the other changes the refractive index at the surface.
Test [2] deals with acetylcholine receptor. The experiment in a line: SPR, AchR immobilised, peptide 10 uM.

B1: 5mer-51 (peptide)
peptide: RSLQR
As to B1, the Binding affinity (RU) with acetylcholine receptor [1] was determined as 70 RU.

B2: 5mer-354 (peptide)
peptide: RSQTR
The molecule B2 displayed a Binding affinity (RU) with acetylcholine receptor [1] of 64 RU.

B3: 6mer-1-1120 (peptide)
peptide: RRKEAK
B3 returned a Binding affinity (RU) with acetylcholine receptor [2] of 22 RU.

B4: 6mer-1-1098 (peptide)
peptide: RKKDMR
In the case of B4, the Binding affinity (RU) with acetylcholine receptor [2] was 42 RU.

B5: 5mer-358 (peptide)
peptide: KVRSK
As to B5, the Binding affinity (RU) with acetylcholine receptor [1] worked out at 50 RU.

B6: 6mer-1-1116 (peptide)
peptide: KRHPFR
In turn, B6 registered a Binding affinity (RU) with acetylcholine receptor [2] of 35 RU.

B7: 6mer-1-1112 (peptide)
peptide: KKDPWK
B7: the Binding affinity (RU) with acetylcholine receptor [2] stood at 27 RU.

B8: 6mer-1-1092 (peptide)
peptide: RKYHDK
In the test with acetylcholine receptor [2], B8 yielded a Binding affinity (RU) of 43 RU.

B9: 6mer-1-1117 (peptide)
peptide: KKEWFR
In turn, B9 gave a Binding affinity (RU) in the test with acetylcholine receptor [2] of 40 RU.

B10: 6mer-1-1105 (peptide)
peptide: RRCTAR
B10 had a Binding affinity (RU) with acetylcholine receptor [2] of 40 RU.

B11: 6mer-1-1109 (peptide)
peptide: KRCCVR
With B11, the Binding affinity (RU) with acetylcholine receptor [2] is 41 RU.

B12: 5mer-351 (peptide)
peptide: KSFSK
Molecule B12 displayed a Binding affinity (RU) with acetylcholine receptor [1] of 75 RU.

B13: 6mer-1-1094 (peptide)
peptide: RRMAIK
Take B13: in the test with acetylcholine receptor [2], the Binding affinity (RU) is 42 RU.

B14: 5mer-53 (peptide)
peptide: RLVTR
In the case of B14, the Binding affinity (RU) in the test with acetylcholine receptor [1] stood at 50 RU.

B15: 6mer-1-1111 (peptide)
peptide: RRASPR
B15: in the test with acetylcholine receptor [2], the Binding affinity (RU) came out at 38 RU.

B16: 5mer-59 (peptide)
peptide: KLQYR
B16 displayed a Binding affinity (RU) with acetylcholine receptor [1] of 68 RU.

B17: 6mer-1-1121 (peptide)
peptide: KKTWWR
In turn, B17 displayed a Binding affinity (RU) with acetylcholine receptor [2] of 28 RU.

B18: 5mer-52 (peptide)
peptide: RQQYK
Turning to B18, the Binding affinity (RU) with acetylcholine receptor [1] was 50 RU.

B19: 6mer-1-1095 (peptide)
peptide: RRCHVK
Turning to B19, the Binding affinity (RU) with acetylcholine receptor [2] came to 27 RU.

B20: 6mer-1-1089 (peptide)
peptide: RKFTKK
Take B20: the Binding affinity (RU) with acetylcholine receptor [2] was determined as 31 RU.

B21: 6mer-1-1122 (peptide)
peptide: RRTMGR
Take B21: the Binding affinity (RU) with acetylcholine receptor [2] was 33 RU.

B22: 6mer-1-1129 (peptide)
peptide: RKDHAR
On to B22, for which the Binding affinity (RU) with acetylcholine receptor [2] was 39 RU.

B23: 5mer-49 (peptide)
peptide: KWRTR
Molecule B23 returned a Binding affinity (RU) in the test with acetylcholine receptor [1] of 62 RU.

B24: 5mer-357 (peptide)
peptide: RGFRK
For the molecule B24, the Binding affinity (RU) in the test with acetylcholine receptor [1] came to 54 RU.

B25: 6mer-1-1115 (peptide)
peptide: RKCAFR
In the case of B25, in the test with acetylcholine receptor [2], the Binding affinity (RU) came to 43 RU.

B26: 5mer-56 (peptide)
peptide: KRFCK
In the test with acetylcholine receptor [1], B26 registered a Binding affinity (RU) of 59 RU.

B27: 6mer-1-1127 (peptide)
peptide: RKMMMK
B27 registered a Binding affinity (RU) with acetylcholine receptor [2] of 34 RU.

B28: 5mer-55 (peptide)
peptide: RRFSR
In turn, B28 showed a Binding affinity (RU) in the test with acetylcholine receptor [1] of 58 RU.

B29: 6mer-1-1100 (peptide)
peptide: KRMSHK
B29 showed a Binding affinity (RU) with acetylcholine receptor [2] of 43 RU.

B30: 6mer-1-1126 (peptide)
peptide: RRHCDK
Consider B30, for which, in the test with acetylcholine receptor [2], the Binding affinity (RU) was determined as 41 RU.

B31: 5mer-61 (peptide)
peptide: RLILK
B31: the Binding affinity (RU) with acetylcholine receptor [1] was 66 RU.

B32: 6mer-1-1090 (peptide)
peptide: KKTMWR
The molecule B32 returned a Binding affinity (RU) with acetylcholine receptor [2] of 27 RU.

B33: 6mer-1-1097 (peptide)
peptide: RKNCNK
As for B33, the Binding affinity (RU) with acetylcholine receptor [2] was found to be 39 RU.

B34: 5mer-54 (peptide)
peptide: KWLQR
As for B34, in the test with acetylcholine receptor [1], the Binding affinity (RU) was 66 RU.

B35: 5mer-50 (peptide)
peptide: KLLCR
B35: the Binding affinity (RU) with acetylcholine receptor [1] is 63 RU.

B36: 6mer-1-1106 (peptide)
peptide: KRFMNK
B36 yielded a Binding affinity (RU) in the test with acetylcholine receptor [2] of 39 RU.

B37: 6mer-1-1119 (peptide)
peptide: KRIWVR
Molecule B37 showed a Binding affinity (RU) in the test with acetylcholine receptor [2] of 31 RU.

B38: 5mer-356 (peptide)
peptide: KQVLR
B38 displayed a Binding affinity (RU) in the test with acetylcholine receptor [1] of 65 RU.

B39: 5mer-353 (peptide)
peptide: KSQLK
B39: the Binding affinity (RU) with acetylcholine receptor [1] worked out at 59 RU.

B40: 6mer-1-1108 (peptide)
peptide: RRAHNK
On to B40, for which, in the test with acetylcholine receptor [2], the Binding affinity (RU) is 43 RU.

B41: 6mer-1-1130 (peptide)
peptide: RKATFR
As for B41, the Binding affinity (RU) in the test with acetylcholine receptor [2] was determined as 31 RU.

B42: 6mer-1-1131 (peptide)
peptide: RKDNIK
Regarding B42, in the test with acetylcholine receptor [2], the Binding affinity (RU) was 42 RU.

B43: 5mer-58 (peptide)
peptide: KWVSK
The molecule B43 returned a Binding affinity (RU) with acetylcholine receptor [1] of 75 RU.

B44: 6mer-1-1124 (peptide)
peptide: KKDEIR
As to B44, the Binding affinity (RU) in the test with acetylcholine receptor [2] stood at 21 RU.

B45: 6mer-1-1093 (peptide)
peptide: RRKSDR
For the molecule B45, in the test with acetylcholine receptor [2], the Binding affinity (RU) amounted to 37 RU.

B46: 6mer-1-1099 (peptide)
peptide: RRKTDR
Consider B46, for which the Binding affinity (RU) in the test with acetylcholine receptor [2] is 24 RU.

B47: 5mer-350 (peptide)
peptide: KSYYK
The molecule B47 came in with a Binding affinity (RU) with acetylcholine receptor [1] of 59 RU.

B48: 6mer-1-1103 (peptide)
peptide: KREDNK
In turn, B48 yielded a Binding affinity (RU) with acetylcholine receptor [2] of 27 RU.

B49: 5mer-361 (peptide)
peptide: RSYQR
B49 returned a Binding affinity (RU) with acetylcholine receptor [1] of 58 RU.

B50: 6mer-1-1088 (peptide)
peptide: RRETHK
B50 registered a Binding affinity (RU) in the test with acetylcholine receptor [2] of 38 RU.

B51: 6mer-1-1123 (peptide)
peptide: RRDNVK
In the test with acetylcholine receptor [2], B51 had a Binding affinity (RU) of 41 RU.

B52: 6mer-1-1110 (peptide)
peptide: RKFTER
B52 showed a Binding affinity (RU) in the test with acetylcholine receptor [2] of 24 RU.

B53: 6mer-1-1107 (peptide)
peptide: KRCPPR
For the molecule B53, the Binding affinity (RU) with acetylcholine receptor [2] worked out at 36 RU.

B54: 5mer-62 (peptide)
peptide: KQLTK
In turn, B54 yielded a Binding affinity (RU) with acetylcholine receptor [1] of 70 RU.

B55: 6mer-1-1104 (peptide)
peptide: KRNSAR
In the case of B55, the Binding affinity (RU) with acetylcholine receptor [2] stood at 28 RU.

B56: 5mer-355 (peptide)
peptide: KLLYR
In the test with acetylcholine receptor [1], B56 yielded a Binding affinity (RU) of 87 RU.

B57: 5mer-360 (peptide)
peptide: RQLCK
As for B57, the Binding affinity (RU) with acetylcholine receptor [1] worked out at 66 RU.

B58: 6mer-1-1118 (peptide)
peptide: KKDTIK
With B58, in the test with acetylcholine receptor [2], the Binding affinity (RU) came out at 33 RU.

B59: 6mer-1-1114 (peptide)
peptide: KKFNFK
With B59, in the test with acetylcholine receptor [2], the Binding affinity (RU) came to 38 RU.

B60: 5mer-359 (peptide)
peptide: KRFQK
With B60, in the test with acetylcholine receptor [1], the Binding affinity (RU) is 79 RU.

B61: 6mer-1-1091 (peptide)
peptide: KKDDGK
In the test with acetylcholine receptor [2], B61 came in with a Binding affinity (RU) of 32 RU.

B62: 5mer-349 (peptide)
peptide: KQVYR
B62 gave a Binding affinity (RU) in the test with acetylcholine receptor [1] of 50 RU.

B63: 6mer-1-1125 (peptide)
peptide: KKPTDR
B63: the Binding affinity (RU) in the test with acetylcholine receptor [2] is 26 RU.

B64: 6mer-1-1101 (peptide)
peptide: RRECDK
As for B64, in the test with acetylcholine receptor [2], the Binding affinity (RU) amounted to 37 RU.

B65: 5mer-60 (peptide)
peptide: RLFTK
As for B65, the Binding affinity (RU) with acetylcholine receptor [1] came out at 86 RU.

B66: 6mer-1-1096 (peptide)
peptide: RKPEPR
With B66, the Binding affinity (RU) with acetylcholine receptor [2] came to 23 RU.

B67: 5mer-57 (peptide)
peptide: KQLYR
In the case of B67, the Binding affinity (RU) in the test with acetylcholine receptor [1] is 73 RU.

B68: 6mer-1-1113 (peptide)
peptide: RRCTMK
Consider B68, for which the Binding affinity (RU) with acetylcholine receptor [2] is 28 RU.

B69: 6mer-1-1102 (peptide)
peptide: KRFTKK
For the molecule B69, in the test with acetylcholine receptor [2], the Binding affinity (RU) was determined as 35 RU.

B70: 5mer-352 (peptide)
peptide: RLVRK
B70 displayed a Binding affinity (RU) in the test with acetylcholine receptor [1] of 76 RU.

B71: 6mer-1-1128 (peptide)
peptide: KKKKPK
With B71, in the test with acetylcholine receptor [2], the Binding affinity (RU) amounted to 39 RU.
